Laboratory results taken from patent US20090074762A1.

Molecular target: T1, TweakR on cells (TweakR-expressing cells, TweakR transfectant cell line, A375 melanoma cells, tumor tissue) (human) (UniProt Q9NP84)
T1 sequence: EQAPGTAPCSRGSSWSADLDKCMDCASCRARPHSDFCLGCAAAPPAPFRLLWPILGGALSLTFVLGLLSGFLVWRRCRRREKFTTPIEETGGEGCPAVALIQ
Assay: cell-based or functional assay

agonist activity (IL-8 release assay): 28%
Substance: anti-TweakR antibody ITEM2
